This is an account of results in PMC3962721.

Series [1] concerns the target T1, DDB2 (FLAG-tagged, in DDB.com);DDB1;Cul4A;Roc1 (Homo sapiens?;Homo sapiens?;Homo …, UniProt Q92466;Q16531;Q13619;P62877 1-427;1-1140;1-759;1-108, |||). Briefly: EMSA.
Series [2] deals with T1, DDB2 (FLAG-tagged, in …). Briefly: competition.
The target in series [3] is T1, DDB2 (FLAG-tagged, in …). Briefly: competition. The source holds these as a separate data set.
Series [4] has as its target T1, DDB2 (FLAG-tagged, in …). Kind of series: EMSA. This is another data set of the same source. (In general: In EMSA bound probe runs differently from free probe, usually more slowly.)

T1 sequence (Q92466 whole entry, chain 1 of 4): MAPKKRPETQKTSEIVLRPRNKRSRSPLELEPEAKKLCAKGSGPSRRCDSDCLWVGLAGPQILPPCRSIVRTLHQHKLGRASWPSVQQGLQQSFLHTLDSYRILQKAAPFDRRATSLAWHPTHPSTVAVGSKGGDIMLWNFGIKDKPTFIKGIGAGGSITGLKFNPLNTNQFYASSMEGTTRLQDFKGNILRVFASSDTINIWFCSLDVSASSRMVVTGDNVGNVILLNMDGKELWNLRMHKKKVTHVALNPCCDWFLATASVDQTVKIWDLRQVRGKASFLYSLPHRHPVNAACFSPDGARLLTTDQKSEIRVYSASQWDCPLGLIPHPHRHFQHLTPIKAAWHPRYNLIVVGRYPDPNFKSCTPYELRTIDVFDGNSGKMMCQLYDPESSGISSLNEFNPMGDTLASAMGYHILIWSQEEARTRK
T1 sequence (Q16531 whole entry, chain 2 of 4): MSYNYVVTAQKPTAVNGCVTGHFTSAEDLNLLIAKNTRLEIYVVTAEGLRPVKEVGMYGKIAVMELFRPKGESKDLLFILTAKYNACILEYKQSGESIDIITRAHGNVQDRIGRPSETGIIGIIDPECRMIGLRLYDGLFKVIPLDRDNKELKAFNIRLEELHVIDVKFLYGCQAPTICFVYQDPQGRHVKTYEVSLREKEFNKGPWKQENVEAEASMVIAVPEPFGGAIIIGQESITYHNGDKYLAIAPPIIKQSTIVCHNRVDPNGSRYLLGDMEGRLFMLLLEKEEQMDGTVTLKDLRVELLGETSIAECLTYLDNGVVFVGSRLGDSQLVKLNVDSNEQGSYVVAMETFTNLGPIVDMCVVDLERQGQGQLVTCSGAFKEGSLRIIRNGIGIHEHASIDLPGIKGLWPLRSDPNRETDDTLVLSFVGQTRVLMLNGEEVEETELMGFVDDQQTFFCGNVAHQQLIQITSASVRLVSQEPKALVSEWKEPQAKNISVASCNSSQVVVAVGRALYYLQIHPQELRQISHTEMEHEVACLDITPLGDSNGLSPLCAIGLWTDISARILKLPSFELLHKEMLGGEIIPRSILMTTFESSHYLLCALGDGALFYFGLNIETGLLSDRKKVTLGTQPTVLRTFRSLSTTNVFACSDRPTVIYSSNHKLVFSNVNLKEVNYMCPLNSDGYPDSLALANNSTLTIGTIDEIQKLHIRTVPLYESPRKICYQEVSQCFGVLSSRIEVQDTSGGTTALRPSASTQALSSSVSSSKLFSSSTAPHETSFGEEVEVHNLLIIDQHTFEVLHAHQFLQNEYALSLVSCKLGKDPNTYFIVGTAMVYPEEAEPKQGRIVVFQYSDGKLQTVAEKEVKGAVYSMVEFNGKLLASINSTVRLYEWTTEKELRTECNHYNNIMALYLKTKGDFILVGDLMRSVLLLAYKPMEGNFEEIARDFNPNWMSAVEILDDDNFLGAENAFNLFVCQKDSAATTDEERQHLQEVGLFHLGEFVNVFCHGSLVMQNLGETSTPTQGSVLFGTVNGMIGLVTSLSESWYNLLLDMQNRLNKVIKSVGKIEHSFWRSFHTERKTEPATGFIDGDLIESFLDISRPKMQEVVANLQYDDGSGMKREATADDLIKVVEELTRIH
T1 sequence (Q13619 whole entry, chain 3 of 4): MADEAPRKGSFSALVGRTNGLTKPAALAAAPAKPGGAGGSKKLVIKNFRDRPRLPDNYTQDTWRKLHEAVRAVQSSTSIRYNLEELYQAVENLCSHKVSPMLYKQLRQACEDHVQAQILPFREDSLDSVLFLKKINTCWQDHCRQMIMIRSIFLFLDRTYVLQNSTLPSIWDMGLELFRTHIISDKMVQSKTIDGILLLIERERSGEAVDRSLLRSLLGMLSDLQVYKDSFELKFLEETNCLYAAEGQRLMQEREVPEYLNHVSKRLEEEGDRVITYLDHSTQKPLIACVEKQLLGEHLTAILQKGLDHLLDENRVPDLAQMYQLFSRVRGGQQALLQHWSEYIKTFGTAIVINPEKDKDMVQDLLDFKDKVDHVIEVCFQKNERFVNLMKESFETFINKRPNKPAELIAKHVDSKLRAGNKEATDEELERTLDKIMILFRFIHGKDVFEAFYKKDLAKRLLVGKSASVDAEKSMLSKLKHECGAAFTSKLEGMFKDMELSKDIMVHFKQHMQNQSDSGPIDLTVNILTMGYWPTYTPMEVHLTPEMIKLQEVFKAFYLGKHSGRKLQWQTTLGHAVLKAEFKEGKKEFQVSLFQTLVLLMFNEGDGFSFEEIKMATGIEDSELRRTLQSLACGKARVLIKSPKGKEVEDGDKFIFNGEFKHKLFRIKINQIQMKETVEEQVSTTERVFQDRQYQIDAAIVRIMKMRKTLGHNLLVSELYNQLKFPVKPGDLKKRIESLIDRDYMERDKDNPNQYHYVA
T1 sequence (P62877 whole entry, chain 4 of 4): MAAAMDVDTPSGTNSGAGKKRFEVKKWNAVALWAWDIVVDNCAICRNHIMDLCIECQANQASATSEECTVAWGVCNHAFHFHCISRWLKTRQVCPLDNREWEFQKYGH

B1: MnSOD probe (dsDNA)
DNA 1: GAGGCTAGCCTGCAGCCTCCTTTCTCC
DNA 2: GGAGAAAGGAGGCTGCAGGCTAGCCTC
As to B1, in the series with DDB2 (FLAG-tagged, in …) [1], the binding result is listed as “binds”.

B2: Om (unlabeled mutant BCP1 competitor) (dsDNA)
DNA 1: ATTAGGATATTGAAGCCTTTCAAT
DNA 2: ATTGAAAGGCTTCAATATCCTAAT
As for B2, the binding result in the series with DDB2 (FLAG-tagged, in …) [2] is “no binding”.

B3: Ow (unlabeled wild-type BCP1 competitor) (dsDNA)
DNA 1: ATTAGGAGCTTGAAGCCTTTCAAT
DNA 2: ATTGAAAGGCTTCAAGCTCCTAAT
On to B3, for which, in the series with DDB2 (FLAG-tagged, in …) [3], the binding result was “binds”.

B4: Bcl-2 probe (BCP1) (dsDNA)
DNA 1: ATTAGGAGCTTGAAGCCTTTCAAT
DNA 2: ATTGAAAGGCTTCAAGCTCCTAAT
For the molecule B4, in the series with DDB2 (FLAG-tagged, in …) [4], the binding result was “binds”.
